Values of other authors, collected in article PMC4082410.

Key:
Experiment in all cases: kinetics
[1] = biological target: preMADH (Paracoccus denitrificans) (UniProt P22619)
[2] = biological target: quinol MADH (Paracoccus denitrificans) (UniProt P22619)
[3] = biological target: quinone MADH (Paracoccus denitrificans) (UniProt P22619)

Row | Substance | Kd [1] | Kd [2] | Kd [3]
1 | bis-Fe(IV) MauG (from UniProt Q51658) | < 1.5 µM | 11.2 µM | –
2 | diferrous MauG (from UniProt Q51658) | – | – | 10.1 µM
